Here are results for 1 substance from publication PMC2422856.

The target in the test is CapAB(K55M), inactive P-loop mutant of the CapAB chimeric protein, unphosphorylated (Staphylococcus aureus). Nature of the test: crystal structure; CapAB(K55M) at 8.5 mg/ml with 10 mM MgCl2, 20% (v/v) PEG 1000, 200 mM glycine, 0.1 M Na-Hepes pH 7.5, 18 °C; 2.6 Å.

The substance “CapAB(K55M), inactive P-loop mutant of the CapAB chimeric protein, unphosphorylated” showed a stoichiometry N of 8.

The term stoichiometry N denotes the number of molecules, sites or subunits per partner or assembly.
